Source: patent publication US20030064916A1 (Scripps Research, published 2003)

Molecular target: HLA-A2.1 (human, UniProt A*02:01)
Test: competition on EA2 cells: test peptide (100 mM [sic]) vs M1 58-66 (1 mM [sic]); % inhibition of CTL clone 12 lysis, E:T 0.3:1

Row | Binder | % inhibition of A2.1-binding of M1 (58-66)
1 | RLGILHSGTA [hu-wt-p53 110-119] | 10%
2 | AAPPVAPAPA [hu-wt-p53 69-78] | 41%
3 | WVDSTPPPGT [hu-wt-p53 146-155] | 10%
4 | LLPENNVLSPL (also called hu-wt-p53 25-35; hu-p53.25-35) [p53.25-35] | 65%
5 | PLDGEYFTL (also called hu-p53.322-330) [hu-wt-p53 322-330] | 24%
6 | NLLGRNSFEV [hu-wt-p53 263-272] | 50%
7 | EMFRELNEA [hu-wt-p53 339-247] | 12%
8 | VTCTYSPAL [hu-wt-p53 122-130] | 12%
9 | STPPPGTRV [p53.149-157] | 29%
10 | AAPPVAPAPAA [hu-wt-p53 69-79] | 4%
11 | AAPTPAAPA [hu-wt-p53 78-86] | 51%
12 | AAPPVAPA [hu-wt-p53 69-76] | 46%
13 | VLSPLPSQAM [hu-wt-p53 31-40] | 23%
14 | DLMLSPDDI [hu-wt-p53 42-50] | 19%
15 | ITLEDSSGNL [hu-wt-p53 255-264] | 24%
16 | LMLSPDDIEQ [hu-wt-p53 43-52] | 25%
17 | AIYKQSQHM [hu-wt-p53 161-169] | 12%
18 | GLAPPQHLI [hu-wt-p53 187-195] | 62%
19 | LLGRDSFEV (also called mur-p53.261-269) [mur-wt-p53 261-269] | 75%
20 | GTAKSVTCT [hu-wt-p53 117-125] | 12%
21 | QLAKTCPVQ [hu-wt-p53 136-144] | 15%
22 | LLPENNVLS [hu-wt-p53 25-33] | 42%
23 | VAPAPAAPT [hu-wt-p53 73-81] | 12%
24 | RMPEAAPPV (also called hu-wt-p53 65-73; hu-p53.65-73) [p53.65-73] | 62%
25 | VLSPLPSQA [hu-wt-p53 31-39] | 38%
26 | NTFRHSVVV [hu-wt-p53 210-218] | 43%
